Source: paper PMC9934072, “The mechanism of thia-Michael addition catalyzed by LanC enzymes” (Proceedings of the National Academy of Sciences of the …, 2023)
Ends that are not written are not given here.

Experiments:
[1] = target: fluorescein-labeled Dha-Erk peptide; experiment: fluorescence polarisation; LanCL1 or variant titrated (highest 400 μM, 300 μM for some variants) against 20 nM fluorescein-peptide; 0.5 mM TCEP, 0.1 mM ZnCl2, 150 mM NaCl, 100 mM Tris pH 7.5, no GSH; 15 min incubation; triplicates
[2] = target: Fluorescein-labeled Erk peptide in which the Dha was substituted by L-Ala; experiment: fluorescence polarisation; fluorescein-labeled peptide with LanCL1 or its variants; in the absence of GSH to avoid catalytic turnover
[3] = target: T1, LanCL1 Wild Type (human LanC-like protein 1) (human, UniProt O43813 1-399); experiment: fluorescence polarisation; LanCL1 or variant titrated (highest 400 μM, 300 μM for some variants) against 20 nM fluorescein-peptide; 0.5 mM TCEP, 0.1 mM ZnCl2, 150 mM NaCl, 100 mM Tris pH 7.5, no GSH; 15 min incubation; triplicates; settings: both partners purified
T1 construct: LanC-like protein 1 (LanCL1), human; also called LanCL1 WT; WT-LanCL1; source: E. coli Rosetta 2 (DE3), purified (HisTrap Ni-NTA, PD-10 desalting)

[4] = target: T1, LanCL1 Wild Type (human LanC-like …); experiment: as above; settings: both partners purified; remark: listed apart in the source

T1 sequence (O43813 whole entry): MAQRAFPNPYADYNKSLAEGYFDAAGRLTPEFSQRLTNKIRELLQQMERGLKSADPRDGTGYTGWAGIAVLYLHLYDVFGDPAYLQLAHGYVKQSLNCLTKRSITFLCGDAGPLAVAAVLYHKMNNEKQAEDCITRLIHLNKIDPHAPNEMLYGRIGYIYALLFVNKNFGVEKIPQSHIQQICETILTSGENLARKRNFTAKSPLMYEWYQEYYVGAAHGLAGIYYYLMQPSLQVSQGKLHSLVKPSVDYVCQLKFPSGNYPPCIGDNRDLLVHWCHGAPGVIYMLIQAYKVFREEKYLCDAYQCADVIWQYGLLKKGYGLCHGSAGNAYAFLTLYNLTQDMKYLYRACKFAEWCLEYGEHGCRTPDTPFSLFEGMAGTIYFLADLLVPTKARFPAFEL

Molecule: LanCL1 C264A/H277A (from UniProt O43813 1-399) (enzyme)
- Kd [1]: > 112 µM

Molecule: LanCL1 C264A/H277K (from UniProt O43813 1-399) (enzyme)
- Kd [1]: > 470 µM

Molecule: LanCL1 C264A/H277N (from UniProt O43813 1-399) (enzyme)
- Kd [1]: > 315 µM

Molecule: human LanCL1, wild type (His6-LanCL1) (from UniProt O43813 1-399) (enzyme)
- fold weaker binding than Flu-Dha-Erk [2]: 4 fold

B1: fluorescein-labeled Ala-Erk peptide (peptide)
peptide: DHTGFLAEYVATR
modifications: also: fluorescein label, end not given here
notes: Numbers count on: the synthetic 13-mer; Its preparation is not described; also called Flu-Ala-Erk; fluorescein-Ala-Erk
- Kd [3]: > 133 µM
- Kd [4]: 79.6 ± 7.6 µM
